How the values were obtained:
HeLa Kyoto [1] = assay: solubility in G1/S (NP-40 vs SDS abundance) (log2 ratio); higher = more soluble; conditions: cell cycle stage: G1/S
HeLa Kyoto [2] = assay: melting temperature (median over replicates), in situ; higher = more thermally stable
HeLa Kyoto [3] = assay: solubility change mitosis vs G1/S (difference of NP-40 vs SDS log2 ratios) (log2 ratio difference); higher = more soluble in mitosis
HeLa Kyoto [4] = assay: thermal stability score vs G1/S (z-score of summed log2 fold changes over temperatures); higher = more thermally stable than in G1/S
[5] = cell cycle stage: early G1 (4.5 h after nocodazole release)
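Wherever melting temperature (median over replicates), in situ is given: HeLa Kyoto cells synchronized by double thymidine or nocodazole block, proteins quantified by TMT10plex mass spectrometry, three independent biological replicates.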
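Wherever solubility change mitosis vs G1/S (difference of NP-40 vs SDS log2 ratios) is given: synchronized HeLa Kyoto cells (double thymidine block for G1/S, nocodazole release for mitosis), protein amounts in NP-40 versus SDS lysates quantified by mass spectrometry, three biological replicates.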
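Wherever solubility in G1/S (NP-40 vs SDS abundance) is given: HeLa Kyoto cells arrested at G1/S by double thymidine block, proteins quantified by TMT10plex mass spectrometry in mild NP-40 versus SDS extracts, three biological replicates.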
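Wherever thermal stability score vs G1/S (z-score of summed log2 fold changes over temperatures) is given: synchronized HeLa Kyoto cells, proteins quantified by TMT10plex mass spectrometry, three biological replicates, mitosis taken 0.5 h after nocodazole release, G1/S directly after double thymidine block.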

Row | Sequence | solubility in G1/S (log2) (HeLa Kyoto [1]) | melting temperature (HeLa Kyoto [2]; cell cycle stage: G1/S) | melting temperature (HeLa Kyoto [2]; cell cycle stage: mitosis) | solubility change mitosis (log2) (HeLa Kyoto [3]) | thermal stability score (HeLa Kyoto [4]; [5]) | thermal stability score (HeLa Kyoto [4]; cell cycle stage: mitosis)
1 | MGPGPSRAPRAPRLMLCALALMVAAGGCVVSAFNLDTRFLVVKEAGNPGSLFGYSVALHRQTERQQRYLLLAGAPRELAVPDGYTNRTGAVYLCPLTAHKDDCERMNITVKNDPGHHIIEDMWLGVTVASQGPAGRVLVCAHRYTQVLWSGSEDQRRMVGKCYVRGNDLELDSSDDWQTYHNEMCNSNTDYLETGMCQLGTSGGFTQNTVYFGAPGAYNWKGNSYMIQRKEWDLSEYSYKDPEDQGNLYIGYTMQVGSFILHPKNITIVTGAPRHRHMGAVFLLSQEAGGDLRRRQVLEGSQVGAYFGSAIALADLNNDGWQDLLVGAPYYFERKEEVGGAIYVFMNQAGTSFPAHPSLLLHGPSGSAFGLSVASIGDINQDGFQDIAVGAPFEGLGKVYIYHSSSKGLLRQPQQVIHGEKLGLPGLATFGYSLSGQMDVDENFYPDLLVGSLSDHIVLLRARPVINIVHKTLVPRPAVLDPALCTATSCVQVELCFAYNQSAGNPNYRRNITLAYTLEADRDRRPPRLRFAGSESAVFHGFFSMPEMRCQKLELLLMDNLRDKLRPIIISMNYSLPLRMPDRPRLGLRSLDAYPILNQAQALENHTEVQFQKECGPDNKCESNLQMRAAFVSEQQQKLSRLQYSRDVRKLLLSINVTNTRTSERSGEDAHEALLTLVVPPALLLSSVRPPGACQANETIFCELGNPFKRNQRMELLIAFEVIGVTLHTRDLQVQLQLSTSSHQDNLWPMILTLLVDYTLQTSLSMVNHRLQSFFGGTVMGESGMKTVEDVGSPLKYEFQVGPMGEGLVGLGTLVLGLEWPYEVSNGKWLLYPTEITVHGNGSWPCRPPGDLINPLNLTLSDPGDRPSSPQRRRRQLDPGGGQGPPPVTLAAAKKAKSETVLTCATGRAHCVWLECPIPDAPVVTNVTVKARVWNSTFIEDYRDFDRVRVNGWATLFLRTSIPTINMENKTTWFSVDIDSELVEELPAEIELWLVLVAVGAGLLLLGLIILLLWKCGFFKRARTRALYEAKRQKAEMKSQPSETERLTDDY [ITGA3] | 0.0349 | 56.8 °C | 59.2 °C | 0.0722 | -0.693 | -1.42
2 | MGRDTRSRSRSAGRRGRRRQSQSGSRSRSRSHGRRNRRRREDEGRRRRRRRSRERRSDSEEERWQRSGMRSRSPPRPKWHSRDGSSQSDSGEEQSRGQWARRRRRARSWSPSSSASSSASPGRSQSPRAAAAALSQQQSLQERLRLREERKQQEELMKAFETPEEKRARRLAKKEAKERKKREKMGWGEEYMGYTNTDNPFGDNNLLGTFIWNKALEKKGISHLEEKELKERNKRIQEDNRLELQKVKQLRLEREREKAMREQELEMLQREKEAEHFKTWEEQEDNFHLQQAKLRSKIRIRDGRAKPIDLLAKYISAEDDDLAVEMHEPYTFLNGLTVADMEDLLEDIQVYMELEQGKNADFWRDMTTITEDEISKLRKLEASGKGPGERREGVNASVSSDVQSVFKGKTYNQLQVIFQGIEGKIRAGGPNLDMGYWESLLQQLRAHMARARLRERHQDVLRQKLYKLKQEQGVESEPLFPILKQEPQSPSRSLEPEDAAPTPPGPSSEGGPAEAEVDGATPTEGDGDGDGEGEGEGEAVLMEEDLIQQSLDDYDAGRYSPRLLTAHELPLDAHVLEPDEDLQRLQLSRQQLQVTGDASESAEDIFFRRAKEGMGQDEAQFSVEMPLTGKAYLWADKYRPRKPRFFNRVHTGFEWNKYNQTHYDFDNPPPKIVQGYKFNIFYPDLIDKRSTPEYFLEACADNKDFAILRFHAGPPYEDIAFKIVNREWEYSHRHGFRCQFANGIFQLWFHFKRYRYRR [CACTIN] | -0.924 | 47.9 °C | 50.4 °C | 0.985 | 0.527 | 0.928
3 | MGRGWGFLFGLLGAVWLLSSGHGEEQPPETAAQRCFCQVSGYLDDCTCDVETIDRFNNYRLFPRLQKLLESDYFRYYKVNLKRPCPFWNDISQCGRRDCAVKPCQSDEVPDGIKSASYKYSEEANNLIEECEQAERLGAVDESLSEETQKAVLQWTKHDDSSDNFCEADDIQSPEAEYVDLLLNPERYTGYKGPDAWKIWNVIYEENCFKPQTIKRPLNPLASGQGTSEENTFYSWLEGLCVEKRAFYRLISGLHASINVHLSARYLLQETWLEKKWGHNITEFQQRFDGILTEGEGPRRLKNLYFLYLIELRALSKVLPFFERPDFQLFTGNKIQDEENKMLLLEILHEIKSFPLHFDENSFFAGDKKEAHKLKEDFRLHFRNISRIMDCVGCFKCRLWGKLQTQGLGTALKILFSEKLIANMPESGPSYEFHLTRQEIVSLFNAFGRISTSVKELENFRNLLQNIH [ERO1A] | 0.338 | 54.2 °C | 54.6 °C | -0.161 | 5.02 | 7.63
4 | MGRKLDPTKEKRGPGRKARKQKGAETELVRFLPAVSDENSKRLSSRARKRAAKRRLGSVEAPKTNKSPEAKPLPGKLPKGISAGAVQTAGKKGPQSLFNAPRGKKRPAPGSDEEEEEEDSEEDGMVNHGDLWGSEDDADTVDDYGADSNSEDEEEGEALLPIERAARKQKAREAAAGIQWSEEETEDEEEEKEVTPESGPPKVEEADGGLQINVDEEPFVLPPAGEMEQDAQAPDLQRVHKRIQDIVGILRDFGAQREEGRSRSEYLNRLKKDLAIYYSYGDFLLGKLMDLFPLSELVEFLEANEVPRPVTLRTNTLKTRRRDLAQALINRGVNLDPLGKWSKTGLVVYDSSVPIGATPEYLAGHYMLQGASSMLPVMALAPQEHERILDMCCAPGGKTSYMAQLMKNTGVILANDANAERLKSVVGNLHRLGVTNTIISHYDGRQFPKVVGGFDRVLLDAPCSGTGVISKDPAVKTNKDEKDILRCAHLQKELLLSAIDSVNATSKTGGYLVYCTCSITVEENEWVVDYALKKRNVRLVPTGLDFGQEGFTRFRERRFHPSLRSTRRFYPHTHNMDGFFIAKFKKFSNSIPQSQTGNSETATPTNVDLPQVIPKSENSSQPAKKAKGAAKTKQQLQKQQHPKKASFQKLNGISKGADSELSTVPSVTKTQASSSFQDSSQPAGKAEGIREPKVTGKLKQRSPKLQSSKKVAFLRQNAPPKGTDTQTPAVLSPSKTQATLKPKDHHQPLGRAKGVEKQQLPEQPFEKAAFQKQNDTPKGPQPPTVSPIRSSRPPPAKRKKSQSRGNSQLLLS [NOP2] | -2.12 | 55.4 °C | 53.9 °C | 0.976 | -0.377 | -6.17
5 | MGRRRAPAGGSLGRALMRHQTQRSRSHRHTDSWLHTSELNDGYDWGRLNLQSVTEQSSLDDFLATAELAGTEFVAEKLNIKFVPAEARTGLLSFEESQRIKKLHEENKQFLCIPRRPNWNQNTTPEELKQAEKDNFLEWRRQLVRLEEEQKLILTPFERNLDFWRQLWRVIERSDIVVQIVDARNPLLFRCEDLECYVKEMDANKENVILINKADLLTAEQRSAWAMYFEKEDVKVIFWSALAGAIPLNGDSEEEANRDDRQSNTTKFGHSSFDQAEISHSESEHLPARDSPSLSENPTTDEDDSEYEDCPEEEEDDWQTCSEEDGPKEEDCSQDWKESSTADSEARSRKTPQKRQIHNFSHLVSKQELLELFKELHTGRKVKDGQLTVGLVGYPNVGKSSTINTIMGNKKVSVSATPGHTKHFQTLYVEPGLCLCDCPGLVMPSFVSTKAEMTCSGILPIDQMRDHVPPVSLVCQNIPRHVLEATYGINIITPREDEDPHRPPTSEELLTAYGYMRGFMTAHGQPDQPRSARYILKDYVSGKLLYCHPPPGRDPVTFQHQHQRLLENKMNSDEIKMQLGRNKKAKQIENIVDKTFFHQENVRALTKGVQAVMGYKPGSGVVTASTASSENGAGKPWKKHGNRNKKEKSRRLYKHLDM [LSG1] | -0.366 | 49 °C | 49 °C | 0.0936 | 0.926 | 1.89
6 | MGRTSKDKRDVYYRLAKENGWRARSAFKLLQLDKEFQLFQGVTRAVDLCAAPGSWSQVLSQKIGGQGSGHVVAVDLQAMAPLPGVVQIQGDITQLSTAKEIIQHFKGCPADLVVCDGAPDVTGLHDVDEYMQAQLLLAALNIATHVLKPGGCFVAKIFRGRDVTLLYSQLQVFFSSVLCAKPRSSRNSSIEAFAVCQGYDPPEGFIPDLSKPLLDHSYDPDFNQLDGPTRIIVPFVTCGDLSSYDSDRSYPLDLEGGSEYKYTPPTQPPISPPYQEACTLKRKGQLAKEIRPQDCPISRVDTFPQPLAAPQCHTLLAPEMEDNEMSCSP [FTSJ1] | 0.332 | 51.4 °C | 50.5 °C | 0.07 | -0.919 | -0.299
7 | MGRTYIVEETVGQYLSNINLQGKAFVSGLLIGQCSSQKDYVILATRTPPKEEQSENLKHPKAKLDNLDEEWATEHACQVSRMLPGGLLVLGVFIITTLELANDFQNALRRLMFAVEKSINRKRLWNFTEEEVSERVTLHICASTKKIFCRTYDIHDPKSSARPADWKYQSGLSSSWLSLECTVHINIHIPLSATSVSYTLEKNTKNGLTRWAKEIENGVYLINGQVKDEDCDLLEGQKKSSRGNTQATSHSFDVRVLTQLLLNSDHRSTATVQICSGSVNLKGAVKCRAYIHSSKPKVKDAVQAVKRDILNTVADRCEMLFEDLLLNEIPEKKDSEKEFHVLPYRVFVPLPGSTVMLCDYKFDDESAEEIRDHFMEMLDHTIQIEDLEIAEETNTACMSSSMNSQASLDNTDDEQPKQPIKTTMLLKIQQNIGVIAAFTVAVLAAGISFHYFSD [ODR4] | -0.0468 | 50.6 °C | 51.1 °C | -0.0887 | 0.605 | 0.226
8 | MGSGPIDPKELLKGLDSFLNRDGEVKSVDGISKIFSLMKEARKMVSRCTYLNILLQTRSPEILVKFIDVGGYKLLNNWLTYSKTTNNIPLLQQILLTLQHLPLTVDHLKQNNTAKLVKQLSKSSEDEELRKLASVLVSDWMAVIRSQSSTQPAEKDKKKRKDEGKSRTTLPERPLTEVKAETRAEEAPEKKREKPKSLRTTAPSHAKFRSTGLELETPSLVPVKKNASTVVVSDKYNLKPIPLKRQSNVAAPGDATPPAEKKYKPLNTTPNATKEIKVKIIPPQPMEGLGFLDALNSAPVPGIKIKKKKKVLSPTAAKPSPFEGKTSTEPSTAKPSSPEPAPPSEAMDADRPGTPVPPVEVPELMDTASLEPGALDAKPVESPGDPNQLTRKGRKRKSVTWPEEGKLREYFYFELDETERVNVNKIKDFGEAAKREILSDRHAFETARRLSHDNMEEKVPWVCPRPLVLPSPLVTPGSNSQERYIQAEREKGILQELFLNKESPHEPDPEPYEPIPPKLIPLDEECSMDETPYVETLEPGGSGGSPDGAGGSKLPPVLANLMGSMGAGKGPQGPGGGGINVQEILTSIMGSPNSHPSEELLKQPDYSDKIKQMLVPHGLLGPGPIANGFPPGGPGGPKGMQHFPPGPGGPMPGPHGGPGGPVGPRLLGPPPPPRGGDPFWDGPGDPMRGGPMRGGPGPGPGPYHRGRGGRGGNEPPPPPPPFRGARGGRSGGGPPNGRGGPGGGMVGGGGHRPHEGPGGGMGNSSGHRPHEGPGGGMGSGHRPHEGPGGSMGGGGGHRPHEGPGGGISGGSGHRPHEGPGGGMGAGGGHRPHEGPGGSMGGSGGHRPHEGPGHGGPHGHRPHDVPGHRGHDHRGPPPHEHRGHDGPGHGGGGHRGHDGGHSHGGDMSNRPVCRHFMMKGNCRYENNCAFYHPGVNGPPLP [PPP1R10] | 0.0711 | 51 °C | 50.8 °C | 0.274 | 4.23 | 3.65

Reference: the supplement of paper PMC5998384
